Test results reported in patent US20180258161A1 (Chugai, published 2018).
Positions count from the first letter of the chain named. Values belong to the binder of their own block, whether it stands above or below them.

Key:
[1] = target: T1, soluble human IL-6 receptor (human, UniProt P08887 20-357); assay: Biacore T100
T1 construct: also called hsIL-6R; hIL6R
T1 sequence: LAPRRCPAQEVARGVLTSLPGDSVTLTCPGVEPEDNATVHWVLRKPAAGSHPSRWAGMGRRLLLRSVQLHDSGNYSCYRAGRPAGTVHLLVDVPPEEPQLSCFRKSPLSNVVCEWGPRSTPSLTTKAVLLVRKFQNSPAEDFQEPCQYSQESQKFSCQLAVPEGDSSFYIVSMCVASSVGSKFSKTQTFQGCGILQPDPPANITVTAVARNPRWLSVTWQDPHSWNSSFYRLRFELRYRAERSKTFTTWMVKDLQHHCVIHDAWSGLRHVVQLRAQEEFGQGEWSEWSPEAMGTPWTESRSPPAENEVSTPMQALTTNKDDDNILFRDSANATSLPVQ

[2] = target: T1, soluble human IL-6 receptor; assay: Biacore T100, antibody captured by Protein A, 37 C
[3] = target: T2, recombinant human glypican 3 (human, UniProt P51654 25-563, biotin-labeled in the ELISA); assay: ELISA on biotin-labeled GPC3
T2 construct: Six histidine residues are linked; also called GPC3; human GPC3
Procedure: The plate was incubated at 37° C. for 30 minutes. […] The plate was incubated for one hour.

human interleukin 6 = target: T3, human interleukin 6 (human, UniProt P05231 30-212, limits assumed); assay: Biacore T100, antibody captured by Protein A/G, pH 7.4, 37 C
T3 construct: also called hIL6; IL-6
Procedure: Using Biacore T100 (GE Healthcare), the prepared antibodies were assessed for their binding activity (dissociation constant KD (M)) to human interleukin 6 (hIL6) at pH 7.4. The measurement was carried out using as a running buffer 0.05% Tween20, 10 mmol/1 ACES, 150 mmol/l NaCl (pH 7.4) containing 3 μM or 1.2 mM CaCl₂.
After an adequate amount of recombinant Protein A/G (Thermo Scientific) was immobilized onto Sensor chip CM5 (GE Healthcare) by an amino coupling method, antibodies were allowed to bind thereto. An appropriate concentration of hIL6 (human interleukin 6; Kamakura Techno-Science, Inc.) was injected as an analyte to interact with antibodies on the sensor chip. Then, the sensor chip was regenerated by injecting 10 mmol/1 glycine-HCl (pH 1.5). The measurement was carried out at 37° C.

recombinant human IgA [4] = target: T4, recombinant human IgA (human); assay: Biacore T200, pH 7.4, 1.2 mM Ca, 1:1 binding model
T4 construct: Antigen; H(WT)-IgA1 with L(WT); The text calls human IgA a dimeric antigen; also called hIgA
Procedure: (§1) Using Biacore T200 (GE Healthcare), the obtained antibodies were assessed for their binding activity to human IgA (dissociation constant KD (M)). The measurement was carried out using as a running buffer 0.05% tween20, 20 mmol/1 ACES, 150 mmol/l NaCl (pH 7.4 or pH 5.8) containing 3 μM or 1.2 mM CaCl₂, or 0.05% tween20, 20 mmol/1 ACES, 150 mmol/l NaCl (pH 8.0) containing 0.1 μM or 10 mM CaCl₂.
(§2) After an adequate amount of recombinant Protein A/G (Thermo Scientific) was immobilized onto the Sensor chip CM5 (GE Healthcare) by an amino coupling method, antibodies were allowed to bind onto the sensor chip. An appropriate concentration of hIgA (described in (20-1)) was injected as an analyte to interact with antibodies on the sensor chip. Then, the sensor chip was regenerated by injecting 10 mmol/l glycine-HCl, pH 1.5. The measurement was carried out at 37° C. From the assay result, the dissociation constant KD (M) was calculated based on curve-fitting analysis and equilibrium constant analysis using Biacore T200 Evaluation Software (GE Healthcare).

recombinant human IgA [5] = target: T4, recombinant human IgA; assay: Biacore T200, pH 5.8, 3 µM Ca, 1:1 binding model
Procedure: as §1, §2

recombinant human IgA [6] = target: T4, recombinant human IgA; assay: Biacore T200, pH 5.8, 1.2 mM Ca, 1:1 binding model
Procedure: as §1, §2

recombinant human IgA [7] = target: T4, recombinant human IgA; assay: Biacore T200, pH 8.0, 0.1 µM Ca, 1:1 binding model
Procedure: as §1, §2

recombinant human IgA [8] = target: T4, recombinant human IgA; assay: Biacore T200, pH 8.0, 10 mM Ca, 1:1 binding model
Procedure: as §1, §2

recombinant human IgA [9] = target: T4, recombinant human IgA; assay: Biacore T200, pH 7.4, 3 µM Ca, 1:1 binding model
Procedure: as §1, §2

recombinant human IgA [10] = target: T4, recombinant human IgA; assay: Biacore T200, pH 5.8, 3 µM Ca, steady state affinity
Procedure: as §1, §2

recombinant human IgA [11] = target: T4, recombinant human IgA; assay: Biacore T200, pH 5.8, 1.2 mM Ca, steady state affinity
Procedure: as §1, §2

recombinant human IgA [12] = target: T4, recombinant human IgA; assay: Biacore T200, pH 7.4, 3 µM Ca, steady state affinity
Procedure: as §1, §2

recombinant human IgA [13] = target: T4, recombinant human IgA; assay: Biacore T200, pH 7.4, 1.2 mM Ca, steady state affinity
Procedure: as §1, §2

T3 sequence (P05231 30-212 limits assumed): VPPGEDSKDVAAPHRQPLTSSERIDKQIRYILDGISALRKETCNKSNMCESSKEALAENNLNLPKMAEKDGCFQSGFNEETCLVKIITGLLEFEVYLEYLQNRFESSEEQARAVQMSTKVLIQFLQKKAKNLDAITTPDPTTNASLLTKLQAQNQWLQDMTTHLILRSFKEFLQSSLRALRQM
T4 sequence (heavy, as listed by the source): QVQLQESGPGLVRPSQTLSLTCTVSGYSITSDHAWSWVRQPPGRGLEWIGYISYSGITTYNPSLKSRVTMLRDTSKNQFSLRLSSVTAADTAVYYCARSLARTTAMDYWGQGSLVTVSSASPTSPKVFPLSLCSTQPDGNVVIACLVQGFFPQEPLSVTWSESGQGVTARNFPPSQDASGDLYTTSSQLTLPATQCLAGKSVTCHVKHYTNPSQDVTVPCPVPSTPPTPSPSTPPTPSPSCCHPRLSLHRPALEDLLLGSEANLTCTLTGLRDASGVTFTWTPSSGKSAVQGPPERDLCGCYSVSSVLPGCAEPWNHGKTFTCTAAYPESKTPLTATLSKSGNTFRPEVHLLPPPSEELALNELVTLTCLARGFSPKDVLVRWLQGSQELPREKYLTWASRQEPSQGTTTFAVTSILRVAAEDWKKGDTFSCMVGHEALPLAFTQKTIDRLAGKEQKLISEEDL

binding result [2]: binds
B2: 6RK#12-IgG1 (antibody, V domains shown)
VH: QVQLVQSGAEVKKPGSSVKVSCKASGGTFSSYAISWVRQAPGQGLEWMGGIIPIFGTANYAQKFQGRVTITADESTSTAYMELSSLRSEDTAVYYCARDLGDIVVVPAAPDMPKGYYYYGMDVWGQGTMVTVSS
VL: EIVMTQSPATLSVSPGERATLSCRASQSINDNLAWYQQKPGQAPRLLIYGASTRATGIPARFSGSGSGTEFTLTISSLQSEDFAVYFCQQYQYWPPITFGQGTRLDIKR

binding result [3]: binds
B3: GC-IgG1 (antibody, V domains shown)
VH: QVQLVQSGAEVKKPGASVKVSCKASGYTFTDYEMHWVRQAPGQGLEWMGALDPKTGDTAYSQKFKGRVTLTADKSTSTAYMELSSLTSEDTAVYYCTRFYSYTYWGQGTLVTVSS
VL: DVVMTQSPLSLPVTPGEPASISCRSSQSLVHSNRNTYLHWYLQKPGQSPQLLIYKVSNRFSGVPDRFSGSGSGTDFTLKISRVEAEDVGVYYCSQNTHVPPTFGQGTKLEIKR

binding result (human interleukin 6): binds
B4: 6LC4-2#16-IgG1 (antibody, V domains shown)
VH: QVQLQQSGPGLVKPSQTLSLTCAISGDSVSSNSAAWNWIRQSPSRGLEWLGRTYYRSKWYNDYAVSVKSRITINPDTSKNQFSLQLNSVTPEDTAVYYCARDLIAAAGGDFDYWGQGTLVTVSS
VL: QSVLTQPPSVSGAPGQRVTISCTGSRSNIGAGFDVHWYRQLPGTAPKLLIYGISNRPSGVPDRFSGSKSDTSVSLAITGLQAEDEADYYCQSYDSSLSGYVFGTGTKVTVLG

Kd (recombinant human IgA [10]): 1500 nM
Kd (recombinant human IgA [11]): 1100 nM
Kd (recombinant human IgA [12]): 890 nM
Kd (recombinant human IgA [13]): 420 nM
B9: GA4-IgG1 (antibody, V domains shown)
VH: QVQLQQSGPGLVKPSETLSLTCTILGGSISGHYWSWIRQTPGKGLEWIGYIDYSGSTHYNPSLKSRVTMSVDTSKNQFSLKLSSVTAADTAMYYCARDNWDFGSGSYYNWFDPWGQGTLVTVSS
VL: DIQMTQSPSSLSASVGDRVTITCRASQSIEDDLAWYQQKPGKAPKLLIYHASSLQSGVPSRFSGSGSGTDFTLTISSLQPEDFATYYCQQSDNSPLTFGQGTKVEIKR

binding result (human interleukin 6): binds
B10: 6KC4-1#85-IgG1 (antibody, V domains shown)
VH: EVQLVESGGGLVQPGGSLRLSCAASGFTFSSYEMNWVRQAPGKGLEWVSYISSSGSTIYYADSVKGRFTISRDNAKNSLYLQMNSLRAEDTAVYYCARDAPYYYDSSGYTDAFDIWGQGTMVTVSS
VL: EIVLTQSPATLSLSPGERATLSCRASQSVSSYLAWYQQKPGQAPRLLIFDASNRAAGIPARFSGSGSGTDFTLTISSLEPEDFAVYYCQQFDKWVTFGGGTTVEIRR

binding result (human interleukin 6): binds
B11: 6LC4-1#15-IgG1 (antibody, V domains shown)
VH: QVQLVQSGAEVKKPGATVKISCKVSGYTFTDYYMHWVQQAPGKGLEWMGLVDPEDGETIYAEKFQGRVTITADTSTDTAYMELSSLRSEDTAVYYCATAGSSSNFDYWGQGTLVTVSS
VL: QSALTQPRSVSGSPGQSVTISCTGTSSDVGGYNYVSWYQQHPGKAPKLMIYDVSKRPSGVPDRFSGSKSGNTASLTISGLQAEDEADYYCCSYAGSYTWVFGGGTKLTVLG

Further lines, the binder ahead of its results:

B1: FH4-IgG1 (antibody, V domains shown)
VH: QVQLVQSGAEVKKPGSSVKVSCKASGGTFSSYAISWVRQAPGQGLEWMGGIIPIFGTANYAQKFQGRVTITADESTSTAYMELSSLRSEDTAVYYCARERDYYDSSGYYDAFDIWGQGTMVTVSS
VL: ETTVTQSPSFLSASVGDRVTITCITTTDIDDDMNWFQQEPGKAPKLLISEGNILRPGVPSRFSSSGYGTDFTLTISKLQPEDFATYYCLQSDNLPFTFGQGTKLEIKR
Ca … (KD at 3 µM CaCl2 against KD at 2 mM CaCl2) [1]: ≥ 60 fold

B5: 6RL#9-IgG1 (antibody, V domains shown)
VH: QVQLVQSGAEVKKPGASVKVSCKASGYTFTSYYMHWVRQAPGQGLEWMGIINPSGGSTSYAQKFQGRVTMTRDTSTSTVYMELSSLRSEDTAVYYCARDDPGGGEYYFDYWGQGTLVTVSS
VL: QSVLTQPPSVSGAPGQRVTISCTGSRSNMGAGYDVHWYQLLPGAAPKLLISHNTHRPSGVPDRFSGSKSGASASLAITGLQAEDEADYYCQSHDSSLSAVVFGGGTKLTVLS
Ca … (KD at 3 µM CaCl2 against KD at 2 mM CaCl2) [1]: ≥ 120 fold

B6: GA1-IgG1 (antibody, V domains shown)
VH: EVQLVQSGAEVKKPGSSVKVSCKASGGTFSSYAISWVRQAPGQGLEWMGGIIPIFGTANYAQKFQGRVTITADESTSTAYMELSSLRSEDTAVYYCARVAPGNWGSPYFDYWGQGTLVTVSS
VL: B9 VL with H50E, S91R, N93S
notes: also called GAI-IgG1
Kd (recombinant human IgA [4]): 150 nM
koff (recombinant human IgA [4]): 0.084 s⁻¹
kon (recombinant human IgA [4]): 570000 M⁻¹ s⁻¹
Kd (recombinant human IgA [5]): 150 nM
koff (recombinant human IgA [5]): 0.11 s⁻¹
kon (recombinant human IgA [5]): 710000 M⁻¹ s⁻¹
Kd (recombinant human IgA [6]): 140 nM
koff (recombinant human IgA [6]): 0.099 s⁻¹
kon (recombinant human IgA [6]): 680000 M⁻¹ s⁻¹
Kd (recombinant human IgA [7]): 100 nM
koff (recombinant human IgA [7]): 0.12 s⁻¹
kon (recombinant human IgA [7]): 1.2e+06 M⁻¹ s⁻¹
Kd (recombinant human IgA [8]): 220 nM
koff (recombinant human IgA [8]): 0.24 s⁻¹
kon (recombinant human IgA [8]): 1.1e+06 M⁻¹ s⁻¹
Kd (recombinant human IgA [9]): 190 nM
koff (recombinant human IgA [9]): 0.12 s⁻¹
kon (recombinant human IgA [9]): 640000 M⁻¹ s⁻¹

B7: GA2-IgG1 (antibody, V domains shown)
VH: QVQLVQSGAEVKKPGSSVKVSCKASGGTFSSYAISWVRQAPGQGLEWMGGIIPIFGTANYAQKFQGRVTITADESTSTAYMELSSLRSEDTAVYYCARPRWETAISSDAFDIWGQGTMVTVSS
VL: B9 VL with E30S, A34N, H50E, S53N, S91H, D92S, N93S
koff (recombinant human IgA [4]): 0.016 s⁻¹

B8: GA3-IgG1 (antibody, V domains shown)
VH: QVQLVQSGAEVKKPGSSVKVSCKASGGTFSSYAISWVRQAPGQGLEWMGGIIPIFGTANYAQKFQGRVTITADESTSTAYMELSSLRSEDTAVYYCARGNGDYLEYFQHWGQGTLVTVSS
VL: B9 VL with E30S, H50E, S53N, S91R, N93S
Kd (recombinant human IgA [10]): 1100 nM
Kd (recombinant human IgA [4]): 79 nM
koff (recombinant human IgA [4]): 0.033 s⁻¹
kon (recombinant human IgA [4]): 430000 M⁻¹ s⁻¹
Kd (recombinant human IgA [6]): 81 nM
koff (recombinant human IgA [6]): 0.035 s⁻¹
kon (recombinant human IgA [6]): 440000 M⁻¹ s⁻¹
